Source: patent publication JP2008512352A (dated 2008)
Where “and” joins values, the source holds several entries; their conditions need not be identical. Equal entries are not always repeated. Values belong to the binder of their own block, whether it stands above or below them.

Key:
EGFR (腫瘍細胞上) = EGFR (腫瘍細胞上) (UniProt P00533 25-1210, limits assumed); experiment: cell-based or functional assay
ヒトEGFR (プレート被覆) = target: T1, ヒトEGFR (プレート被覆) (human, UniProt P00533 25-645); experiment: direct binding ELISA on immobilised EGFR (ED50: antibody concentration giving 50% of maximal binding)
T1 construct: extracellular domain; 'Extracellular domain' in the legend is read as applying to both EGFR and IGFR; also called 固定化EGFR

IGFR 細胞外ドメイン (プレート被覆) = target: T2, IGFR 細胞外ドメイン (プレート被覆) (human, UniProt P08069 31-935); experiment: direct binding ELISA on immobilised IGFR (ED50: antibody concentration giving 50% of maximal binding)
T2 construct: extracellular domain; 'ヒト' in the legend is read as applying to both EGFR and IGFR; also called 固定化IGFR; IGF-IR

- DiFi細胞の増殖阻害 IC50 (MTT) (EGFR (腫瘍細胞上)): ~1 nM
B1: IMC-11F8 (antibody, V domains shown)
VH: QVQLQESGPGLVKPSQTLSLTCTVSGGSISSGDYYWSWIRQPPGKGLEWIGYIYYSGSTDYNPSLKSRVTMSVDTSKNQFSLKVNSVTAADTAVYYCARVSIFGVGTFDYWGQGTLVTVSS
VL: EIVMTQSPATLSLSPGERATLSCRASQSVSSYLAWYQQKPGQAPRLLIYDASNRATGIPARFSGSGSGTDFTLTISSLEPEDFAVYYCHQYGSTPLTFGGGTKAEIK

- DiFi細胞の増殖阻害 IC50 (MTT) (EGFR (腫瘍細胞上)): 25 nM
- EC50 (ヒトEGFR (プレート被覆)): 0.1 nM and 0.2 nM
- EC50 (IGFR 細胞外ドメイン (プレート被覆)): 0.25 nM and 0.5 nM
B2: 抗-EGFR/抗-IGFR ジ-ダイアボディ (bispecific antibody)
chain 1: B1 VH
chain 2: B1 VL
chain 3: EVQLVQSGAEVKKPGSSVKVSCKASGGTFSSYAISWVRQAPGQGLEWMGGIIPIFGTANYAQKFQGRVTITADKSTSTAYMELSSLRSEDTAVYYCARAPLRFLEWSTQDHYYYYYMDVWGKGTTVTVSS
chain 4: SSELTQDPAVSVALGQTVRITCQGDSLRSYYASWYQQKPGQAPVLVIYGKNNRPSGIPDRFSGSSSGNTASLTITGAQAEDEADYYCNSRDNSDNRLIFGGGTKLTVL

- EC50 (IGFR 細胞外ドメイン (プレート被覆)): 0.1 nM
B3: IMC-A12 (antibody, V domains shown)
VH: B2 chain 3
VL: B2 chain 4
